Results: patent US20230399394A1 (SUNSHINE GUOJIAN PHARMACEUTICAL SHANGHAI, published 2023)
Each block holds one binder with its values, some of them ahead of it.

Assays:
Human IL-33-his [1] = target: T1, Human IL-33-his (human, UniProt O95760 112-270, biotinylated with EZ-Link NHS-Biotin where used as IL-33-his-biotin); assay: ELISA, IL-33-his-biotin on streptavidin plate, anti-human Fc detection
T1 construct: Used plain (SPR, cell assays) and biotinylated (ELISA); also called IL-33-his-biotin
T1 sequence: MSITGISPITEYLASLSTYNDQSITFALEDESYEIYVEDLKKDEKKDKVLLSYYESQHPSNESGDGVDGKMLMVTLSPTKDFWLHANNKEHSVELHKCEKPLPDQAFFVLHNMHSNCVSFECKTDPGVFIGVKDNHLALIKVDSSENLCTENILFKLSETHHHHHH
Description: (§1) SA protein was diluted to 2 μg/mL to coat ELISA plate at 100 μL/well overnight at 4° C. The plate was washed with PBST (PBS containing 0.05% Tween20) for 3 times, and blocked with 2% BSA prepared in PBS at 200 μL/well, at room temperature for 2 h. After the plate was washed twice with PBST, IL-33-his-biotin protein was diluted to 1 μg/mL with 1% BSA prepared in PBST, and was added to ELISA plate at 100 μL/well. The plate was incubated at room temperature for 1 h, and each monoclonal antibody was diluted with 1% BSA prepared in PBST in a 3-fold gradient. The highest concentration of antibody was 10 μg/mL, and the antibody was diluted for 12 gradients. Each diluted monoclonal antibody was added to ELISA wells with 100 μL/well, and the plate was incubated at room temperature for 1 h. Each sample was added to duplicate wells in parallel. The plate was washed with PBST for 3 times, and HRP-anti human IgG Fc secondary antibody prepared with PBST was diluted at an appropriate ratio, and was added to ELISA wells at 100 μL/well. The plate was incubated at room temperature for 1 h. After washing with PBST for 3 times, TMB developing solution was added at 100 μL/well. When the development met expectations, 2M H₂SO₄ was added to terminate the chromogenic reaction at 70 μL/well. Each reaction solution was shaken uniformly and OD450 nm was read on a microplate reader. The data was analyzed and EC₅₀ was calculated.

Human IL-33-his [2] = target: T1, Human IL-33-his; assay: ELISA as Example 9, IL-33-his-biotin on streptavidin plate; run with Hu3, Hu4, Hu5
Description: as §1, with “When the development met expectations, 2M H₂SO₄ was added to terminate the chromogenic reaction at 70 μL/well.” left out

Human IL-33-his [3] = target: T1, Human IL-33-his; assay: ELISA as Example 9, IL-33-his-biotin on streptavidin plate; run with HuG, Hu1, Hu2
Description: as §1, with “When the development met expectations, 2M H₂SO₄ was added to terminate the chromogenic reaction at 70 μL/well.” left out

Human IL-33-his [4] = target: T1, Human IL-33-his; assay: competition ELISA, antibody mixed with IL-33-his-biotin, ST2-Fc on plate; competitor ST2-Fc
Description: (§2) ST2-Fc protein was diluted to 1 μg/mL with ELISA coating solution to coat ELISA plate with 100 μL/well. The plate was placed in a wet box at 4° C. for 16 h for coating. The ELISA plate was washed 3 times with PBST, and then was blocked with 2% BSA prepared in PBS at 200 μL/well at room temperature for 2 h. The plate was washed once with PBST, and was patted dry to remove the excess blocking solution. Each monoclonal antibody was diluted with 1% BSA prepared in PBST in a 3-fold gradient. The highest concentration of antibody was 10 μg/mL, and the antibody was diluted for 11 gradients. The diluted antibody was mixed 1:1 with 10 ng/ml IL-33-his-biotin, and then the mixture was added into the ELISA well at 100 μL/well. The plate was incubated at room temperature for 1 h. Each concentration was added to duplicate wells in parallel (maximum final concentration of antibody was […], final concentration of IL-33-his-biotin was 5 ng/mL). Unbound or non-specifically bound primary antibodies were washed out. According to the instructions of the antibody, HRP labeled streptavidin secondary antibody was diluted to an appropriate concentration with antibody diluent solution, then it was added to ELISA plate with 100 μL/well, and was incubated at room temperature for 1 h. The ELISA plate was washed with PBST for 5 times, and was patted dry on absorbent paper to remove excess liquid. TMB developing solution was added with 100 μL/well for development to an appropriate degree. 2M H₂SO₄ was added with 70 μL/well to terminate development, and the absorbance was measured at 450 nm on a multifunctional microplate reader. The data were analyzed.

Human IL-33-his [5] = target: T1, Human IL-33-his; assay: cell-based or functional assay
Human IL-33-his [6] = target: T1, Human IL-33-his; assay: ELISA as Example 9, IL-33-his-biotin on streptavidin plate
Human IL-33-his [7] = target: T1, Human IL-33-his; assay: competition ELISA as Example 10, ST2-Fc on plate; competitor ST2-Fc
Description: as §2
The blocking effect of the above humanized antibodies on the binding of IL-33 to its receptor ST2 was determined by the ELISA method, and the relevant experimental methods were referred to Example 10.

Human IL-33-his [8] = target: T1, Human IL-33-his; assay: SPR Biacore 8K as Example 14, antibody captured, antigen as analyte
Description: (§3) A chip with covalently coupled Protein A/G (purchased from GE Healthcare, catalog number BR-1005-30) was used to capture each antibody to be tested, and the relevant operating parameters were as follows: The antibody concentration was […], the contact time was 75 s, the flow rate was […], and the regeneration contact time was 30 s. The IL-33-his antigen was diluted with HBS-EP pH7.4 buffer solution (purchased from GE Healthcare, catalog number BR-1006-69). The maximum concentration was 50 nM, and diluted to 0.39 nM by two-fold dilution. Duplicate wells and 0 concentration point well were set, and 6M guanidine hydrochloride solution was used as the regeneration buffer. The sample was injected on Biacore 8K according to the following parameters, the binding time was 180 s, the dissociation time was 900 s, the flow rate was 30 μL/min, and the regeneration contact time was 30 s. After running, Biacore 8K Evaluation Software was used to analyze the data according to the “1:1 binding kinetics model”, and the binding kinetics parameters of each antibody to IL-33 were obtained.
(§4) The experimental methods were referred to Example 14, in which the antigens cynomolgus IL-33 protein (purchased from Sino catalog number 90912-CNAE) and mouse IL-33 protein (purchased from R&D, 3626-ML-010/CF) were used, and human IL-33 protein was used as the control. Both 864F3-Hu4 and 874F7-Hu1 cross-react with cynomolgus IL-33 protein, and are consistent with the characteristics of each antibody binding to human IL-33 protein.

Cynomolgus IL-33-his = target: T2, Cynomolgus IL-33-his (cynomolgus, UniProt A0A2K5W3I1 112-269, biotinylated in the ELISA of Example 6); assay: as above
T2 construct: Bought protein; also called cynomolgus IL-33 protein; Cynomolgus monkeys IL-33
T2 sequence: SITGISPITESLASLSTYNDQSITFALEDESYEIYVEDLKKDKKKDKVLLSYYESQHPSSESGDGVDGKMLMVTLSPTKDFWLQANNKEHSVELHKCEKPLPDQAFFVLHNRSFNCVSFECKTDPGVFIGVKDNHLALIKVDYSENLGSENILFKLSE
Description: as §3, §4

Mouse IL-33 protein = target: T3, Mouse IL-33 protein (mouse, UniProt Q8BVZ5 109-266); assay: as above
T3 construct: Bought protein
T3 sequence (looked up): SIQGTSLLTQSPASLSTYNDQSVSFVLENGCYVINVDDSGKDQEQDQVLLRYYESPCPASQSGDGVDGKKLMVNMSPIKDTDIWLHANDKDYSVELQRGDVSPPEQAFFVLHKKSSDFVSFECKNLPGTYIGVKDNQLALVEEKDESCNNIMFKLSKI
Description: as §3, §4

Human IL-33-his [9] = target: T1, Human IL-33-his; assay: SPR Biacore 8K, antibody captured on Protein A/G chip, IL-33-his as analyte, 1:1 model
Description: as §3

Human IL-33-his [10] = target: T1, Human IL-33-his; assay: SPR Biacore 8K as Example 14, antibody captured, antigen as analyte; human IL-33 as the control in the cross-reactivity run of Table 3
Description: as §3
The experimental methods were referred to Example 14, in which the antigens cynomolgus IL-33 protein (purchased from Sino catalog number 90912-CNAE) and mouse IL-33 protein (purchased from R&D, 3626-ML-010/CF) were used, and human IL-33 protein was used as the control. […]

EC50 (Human IL-33-his [1]): 0.173 nM | EC50 (Human IL-33-his [2]): 0.124 nM | EC50 (Human IL-33-his [3]): 0.169 nM | IC50 (Human IL-33-his [4]): 0.58 nM
B1: 864F3-ch2 (antibody, human IgG4 S228P, kappa, V domains shown)
VH: QVHLKESGPGLVAPSQSLSITCNVSGFSLSKYGVHWIRQTPGRGLDWLGVLRAGGTISYNSALMSRLSISEDISKSQVFLKMNDLQTDDSAIYFCARDHYYYSSFGGFASWGQGTLVTVSA
VL: DIQMTQSPASQSASLGESVTITCLASQTIATWLAWYQQKPGKSPQLLIYAATRLADGVPSRFSGSGSGTEFSFKISSLQAEDFVIYYCQQLYNTPYTFGGGTKLEIKR
notes: Chimeric: human IgG4 (S228P) and human kappa constant regions; also called chimeric antibody 864F3-ch2

IC50 of inhibition of IFNγ secretion by NK cells induced by IL-33 (Human IL-33-his [5]): 0.904 nM | IC50 of inhibition of IL-5 secretion of KU812 cells induced by IL-33 (Human IL-33-his [5]): 27.6 nM | IC50 of inhibition of IL-13 secretion of KU812 cells induced by IL-33 (Human IL-33-his [5]): 14.7 nM | IC50 of the inhibitory effect on IL-6 expression in HUVEC cells induced by IL-33 (Human IL-33-his [5]): 0.073 nM | IC50 of the inhibitory effect on the IFN-γ secretion of PBMC induced by IL-33 (Human IL-33-his [5]): 1.22 nM | EC50 (Human IL-33-his [6]): 0.135 nM | IC50 (Human IL-33-his [7]): 0.512 nM | koff (Human IL-33-his [8]): 0.000149 s⁻¹ | kon (Human IL-33-his [8]): 270000 M⁻¹ s⁻¹ | Kd (Cynomolgus IL-33-his): 0.637 nM | koff (Cynomolgus IL-33-his): 0.000245 s⁻¹ | kon (Cynomolgus IL-33-his): 385000 M⁻¹ s⁻¹ | Kd (Mouse IL-33 protein): 190 nM | koff (Mouse IL-33 protein): 0.0205 s⁻¹ | kon (Mouse IL-33 protein): 108000 M⁻¹ s⁻¹ | Kd (Human IL-33-his [9]): 1.38 nM | koff (Human IL-33-his [9]): 0.000447 s⁻¹ | kon (Human IL-33-his [9]): 323000 M⁻¹ s⁻¹ | Kd (Human IL-33-his [10]): 0.552 nM
B2: 864F3-Hu4 (antibody, human IgG4 S228P, kappa, V domains shown)
VH: QVQLQESGPGLVKPSETLSLTCTVSGFSLSKYGVHWIRQPPGKGLEWIGVLRAGGTISYNSALMSRVTISEDISKSQVSLKLSSVTAADTAVYYCARDHYYYSSFGGFASWGQGTLVTVSS
VL: DIQMTQSPSSLSASVGDRVTITCLASQTIATWLAWYQQKPGKSPKLLIYAATRLADGVPSRFSGSGSGTDFTLTISSLQPEDFATYYCQQLYNTPYTFGQGTKVEIKR
notes: Humanized; also called humanized antibody 864F3-Hu4
